Laboratory results as given in patent publication US20210253697A1 (Novo Nordisk, published 2021).

Biological target: T1, cynomolgus TREM-1 (cTREM-1 protein, SPR analyte of Examples 9 and 11) (cynomolgus monkey)
T1 construct: Soluble analyte; also called cyno TREM1
T1 chain: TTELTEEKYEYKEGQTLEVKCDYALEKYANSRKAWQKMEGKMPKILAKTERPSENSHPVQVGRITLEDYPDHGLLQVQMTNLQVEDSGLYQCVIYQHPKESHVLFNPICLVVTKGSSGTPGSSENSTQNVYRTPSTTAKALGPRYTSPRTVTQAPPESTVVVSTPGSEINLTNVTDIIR
Assay: SPR, mAb captured, cTREM-1 analyte
Protocol: Binding studies were performed on a ProteOn Analyzer (BioRad) that measures molecular interactions in real time through surface plasmon resonance. Experiments were run at 25° C. and the samples were stored at 15° C. in the sample compartment. The signal (RU, response units) reported by the ProteOn is directly correlated to the mass on the individual sensor chip surfaces in six parallel flow cells. Anti-human Fc monoclonal or anti-murine Fc polyclonal antibody from Biacore human or mouse Fc capture kits were immobilized in horizontal direction onto flow cells of a GLM sensor chip according to the manufacturer's instructions. The final immobilization level of capture antibody was approximately 2600-6000 RU in different experiments. […] The GLM surface was regenerated after each injection cycle of analyte via two 18 s injections of 10 mM Glycine, pH 1.7 and 50 mM NaOH at 100 μl/min. This regeneration step removed the anti-TREM-1 antibody and any bound TREM-1 protein from the immobilized capture antibody surface, and allowed for the subsequent binding of the next interaction sample pair.

- Kd: 0.94 nM
B1: mAb 0121 (antibody, V domains shown)
VH: EVQLVESGGGLVQPGGSLKLSCAASGFTFSTYAMHWVRQASGKGLEWVGRIRTKSSNYATYYAASVKGRFTISRDDSKNTAYLQMNSLKTEDTAVYYCVRDMGQRRQFAYWGQGTLVTVSS
VL: DIVMTQSPDSLAVSLGERATINCRASESVDTFDYSFLHWYQQKPGQPPKLLIYRASNLESGVPDRFSGSGSGTDFTLTISSLQAEDVAVYYCQQSNEDPYTFGQGTKLEIK
notes: recombinant; also called 14F113/14F69 hz variant HC T93V; 14F113 hz variant HC T93V
